Measurements reported in publication PMC11833279, “Versatile Features of an Antibody Mimetic Peptide and Its Variants” (Journal of Peptide Science, 2025).
Non-standard residues stand in square brackets, D forms with d. *: point of attachment. Biotin = O=C1N[C@H]2[C@H](CS[C@H]2CCCCC(=O)*)N1; Ahx = NCCCCCC(=O)O; βAla = NCCC(=O)O

Legend:
[1] = molecular target: T1, HIV‐1 envelope glycoprotein gp120, strain HxBc2 (HIV-1 strain HxBc2, UniProt P04578 33-511); assay: ELISA; gp120 HxBc2 coated (1.4 μg/mL, 0.1 M phosphate buffer pH 7.4, overnight 4°C), blocked with Ficoll 400; biotinylated peptide in serial threefold dilutions from 400 nM, overnight 4°C; detected with anti-biotin peroxidase; settings: both partners purified
[2] = molecular target: T1, HIV‐1 envelope glycoprotein gp120, …; assay: cell-based or functional assay

B1: H1H3s‐R28K (peptide)
chain: Ac-GYKFSNFVIHWG[βAla]G[Ahx]GK(Biotin)G[Ahx]SVGPYSWDDSPQDNYMDS-NH2
modifications: not fully specified; printed as Ac‐GYKFSNFVIHW‐GBGXG‐K*‐GX‐SVGPYSWDDSPQDNYMDS‐NH_2_
B1 gave an EC50 [1] of 7.86 ± 1.35 nM.

B2: H1H3s (peptide)
chain: Ac-GYRFSNFVIHWG[βAla]G[Ahx]GK(Biotin)G[Ahx]SVGPYSWDDSPQDNYMDS-NH2
modifications: not fully specified; printed as Ac‐GYRFSNFVIHW‐GBGXG‐K*‐GX‐SVGPYSWDDSPQDNYMDS‐NH_2_
For B2, the “neutralisation of HIV-1 NL4-3 infection, SEAP reporter CEMx174 cells, IC50” value [2] was 6300 nM and the EC50 [1] was 6.46 ± 1.5 nM.

B3: H1H3s‐allD (peptide)
chain: Ac-G[dY][dR][dF][dS][dN][dF][dV][dI][dH][dW]G[βAla]G[Ahx]G[dK](Biotin)G[Ahx][dS][dV]G[dP][dY][dS][dW][dD][dD][dS][dP][dQ][dD][dN][dY][dM][dD][dS]-NH2
SMILES: CC[C@@H](C)[C@@H](NC(=O)[C@H](NC(=O)[C@@H](Cc1ccccc1)NC(=O)[C@@H](CC(N)=O)NC(=O)[C@@H](CO)NC(=O)[C@@H](Cc1ccccc1)NC(=O)[C@@H](CCCNC(=N)N)NC(=O)[C@@H](Cc1ccc(O)cc1)NC(=O)CNC(C)=O)C(C)C)C(=O)N[C@H](Cc1c[nH]cn1)C(=O)N[C@H](Cc1c[nH]c2ccccc12)C(=O)NCC(=O)NCCC(=O)NCC(=O)NCCCCCC(=O)NCC(=O)N[C@H](CCCCNC(=O)CCCC[C@@H]1SC[C@@H]2NC(=O)N[C@@H]21)C(=O)NCC(=O)NCCCCCC(=O)N[C@H](CO)C(=O)N[C@@H](C(=O)NCC(=O)N1CCC[C@@H]1C(=O)N[C@H](Cc1ccc(O)cc1)C(=O)N[C@H](CO)C(=O)N[C@H](Cc1c[nH]c2ccccc12)C(=O)N[C@H](CC(=O)O)C(=O)N[C@H](CC(=O)O)C(=O)N[C@H](CO)C(=O)N1CCC[C@@H]1C(=O)N[C@H](CCC(N)=O)C(=O)N[C@H](CC(=O)O)C(=O)N[C@H](CC(N)=O)C(=O)N[C@H](Cc1ccc(O)cc1)C(=O)N[C@H](CCSC)C(=O)N[C@H](CC(=O)O)C(=O)N[C@H](CO)C(N)=O)C(C)C
In the case of B3, the “neutralisation of HIV-1 NL4-3 infection, SEAP reporter CEMx174 cells, IC50” value [2] is reported as 1900 nM.
